Laboratory results: patent US20220031840A1, “Method of Treatment” (HaemaLogix Pty Ltd, priority 2018, published 2022)

Experiment: Phase 1 safety and tolerability of single IV infusion of kappamab (adverse events, laboratory, ECG)
[1] = Possibly, probably, or definitely related AEs, Total, 3.0 mg/kg (N = 3)
[2] = Possibly, probably, or definitely related AEs, Total, 10 mg/kg (N = 3)
[3] = Possibly, probably, or definitely related AEs, Total, Overall (N = 12)
[4] = Related AEs by System Organ Class, Overall total, 0.3 mg/kg (N = 3)
[5] = Related AEs by System Organ Class, Overall total, 1.0 mg/kg (N = 3)
[6] = Related AEs by System Organ Class, Overall total, 3.0 mg/kg (N = 3)
[7] = Related AEs by System Organ Class, Overall total, 10 mg/kg (N = 3)
[8] = Related AEs by System Organ Class, Overall total, Overall (N = 12)
[9] = Related AEs: Dyspnea, 10 mg/kg (N = 3)
[10] = Related AEs: Dyspnea, Overall (N = 12)
[11] = Related AEs: Eructation, 10 mg/kg (N = 3)
[12] = Related AEs: Eructation, Overall (N = 12)
[13] = Related AEs: Flushing, 10 mg/kg (N = 3)
[14] = Related AEs: Flushing, Overall (N = 12)
[15] = Related AEs: Gastrointestinal disorders, Total, 10 mg/kg (N = 3)
[16] = Related AEs: Gastrointestinal disorders, Total, Overall (N = 12)
[17] = Related AEs: Musculoskeletal and connective tissue disorders, Total, 10 mg/kg (N = 3)
[18] = Related AEs: Musculoskeletal and connective tissue disorders, Total, Overall (N = 12)
[19] = Related AEs: Nausea, 10 mg/kg (N = 3)
[20] = Related AEs: Nausea, Overall (N = 12)
[21] = Related AEs: Pain in extremity, 10 mg/kg (N = 3)
[22] = Related AEs: Pain in extremity, Overall (N = 12)
[23] = Related AEs: Respiratory, thoracic & mediastinal disorders, Total, 10 mg/kg (N = 3)
[24] = Related AEs: Respiratory, thoracic & mediastinal disorders, Total, Overall (N = 12)
[25] = Related AEs: Vascular disorders, Total, 10 mg/kg (N = 3)
[26] = Related AEs: Vascular disorders, Total, Overall (N = 12)

Protocol: Patients on maintenance therapy (thalidomide or lenalidomide) were also eligible for inclusion. Patients were excluded from the study if their serum κFLC was greater than 250 mg/L.
The pharmacodynamics of serum κFLC was also assessed. Drug-target modulation of cell signalling pathways was determined by measuring pro-inflammatory and anti-inflammatory cytokines, chemokines, and growth factors in patient serum at specific time intervals.
After providing HREC-approved consent, patients were screened and assessed for study eligibility.
Within each dose cohort only 1 patient per week was to be treated. […] Premedication was not mandated, however, paracetamol (acetaminophen), corticosteroids, and antihistamines were allowed for the treatment of infusion reactions.
Evaluation of safety and tolerability during treatment included vital signs, physical examination, electrocardiogram (ECG), haematology assessments, clinical chemistry, C-reactive protein, β2-microglobulin, immunoglobulin quantification, urinalysis, creatinine clearance, collection of adverse events (AEs), and drug-induced toxicity. All AEs were graded using the Cancer Therapy Evaluation Program Common Terminology Criteria for Adverse Events, version 3.0.

With “kappamab: humanized form of K121 anti-KMA antibody; VH SEQ ID NO: 1, VL SEQ ID NO: 2” the “Number of patients with AEs (%)” value [1] was 0 (0%), the “number of AEs” value [1] was 0 and the “Number of patients with AEs (%)” value [2] was 2 (67%). The “number of AEs” value [2] was 6, the “Number of patients with AEs (%)” value [3] was 2 (17%) and the “number of AEs” value [3] was 6. The “Number of patients with AEs (%)” value [4] was 0[0], the “number of AEs” value [4] was 0[0] and the “Number of patients with AEs (%)” value [5] was 0[0]. The “number of AEs” value [5] was 0[0], the “Number of patients with AEs (%)” value [6] was 0[0] and the “number of AEs” value [6] was 0[0]. For the same substance, the “Number of patients with AEs (%)” value [7] was 2 (67%), the “number of AEs” value [7] was 6 and the “Number of patients with AEs (%)” value [8] was 2 (17%). The “number of AEs” value [8] was 6, the “Number of patients with AEs (%)” value [9] was 1(33%) and the “number of AEs” value [9] was 1. The “Number of patients with AEs (%)” value [10] was 1 (8.3%), the “number of AEs” value [10] was 1 and the “Number of patients with AEs (%)” value [11] was 1 (33%). The “number of AEs” value [11] was 1, the “Number of patients with AEs (%)” value [12] was 1 (8.3%) and the “number of AEs” value [12] was 1. The “Number of patients with AEs (%)” value [13] was 1 (33%), the “number of AEs” value [13] was 1 and the “Number of patients with AEs (%)” value [14] was 1 (8.3%). For the same substance, the “number of AEs” value [14] was 1, the “Number of patients with AEs (%)” value [15] was 2 (67%) and the “number of AEs” value [15] was 3. The “Number of patients with AEs (%)” value [16] was 2 (17%), the “number of AEs” value [16] was 3 and the “Number of patients with AEs (%)” value [17] was 1 (33%). For the same substance, the “number of AEs” value [17] was 1, the “Number of patients with AEs (%)” value [18] was 1 (8.3%) and the “number of AEs” value [18] was 1. The “Number of patients with AEs (%)” value [19] was 2 (67%), the “number of AEs” value [19] was 2 and the “Number of patients with AEs (%)” value [20] was 2 (8.3%). The “number of AEs” value [20] was 2, the “Number of patients with AEs (%)” value [21] was 1 (33%) and the “number of AEs” value [21] was 1. The “Number of patients with AEs (%)” value [22] was 1 (8.3%), the “number of AEs” value [22] was 1 and the “Number of patients with AEs (%)” value [23] was 1 (33%). The “number of AEs” value [23] was 1, the “Number of patients with AEs (%)” value [24] was 1 (8.3%) and the “number of AEs” value [24] was 1. The “Number of patients with AEs (%)” value [25] was 1 (33%), the “number of AEs” value [25] was 1 and the “Number of patients with AEs (%)” value [26] was 1 (8.3%). The “number of AEs” value [26] was 1, the “Time to resolution of infusion reaction symptoms” value (after infusion was stopped, without treatment) was ≤ 30 min and the “Immune complex formation or serum sickness” value (any patient) was “no evidence of immune complex formation or serum sickness”. For the same substance, the “Deaths or other serious AEs” value (during the study) was “no deaths or other serious AEs”, the “Serum immunoglobulin levels, clinical chemistry, haematology, urinalysis” value (during the study) was “no dose-related trends” and the “ECG QTc intervals” value (in vivo) was “no prolongation of QTc intervals”. The “ECOG performance status scores” value (in vivo) was “no effect”, the “Lactate dehydrogenase levels or vital signs” value (in vivo) was “No changes from baseline” and the “Serum C-reactive protein levels” value (in vivo) was “no apparent dose-related trend”. For the same substance, the Infusion reaction (one patient, 10 mg/kg, flushing, dyspnea, nausea after start of infusion) was “grade 1 infusion reaction”, the Maximum tolerated dose (patients treated up to 10 mg/kg) was “No maximum tolerated dose of kappamab was defined” and the Kidney function (serum blood urea nitrogen, serum creatinine, creatinine clearance) was “no drug-related effects on kidney function”.
